This experiment addresses trypsin from porcine pancreas (porcine) (UniProt P00761).
Sequence of UniProt P00761 (P00761 9-231): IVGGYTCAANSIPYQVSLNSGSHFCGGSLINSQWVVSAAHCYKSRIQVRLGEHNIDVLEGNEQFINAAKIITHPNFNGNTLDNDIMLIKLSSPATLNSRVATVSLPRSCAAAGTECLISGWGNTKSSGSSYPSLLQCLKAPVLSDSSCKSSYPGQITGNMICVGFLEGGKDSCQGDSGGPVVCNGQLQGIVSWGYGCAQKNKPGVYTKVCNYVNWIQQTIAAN

B1: Bowman Birk inhibitor (BBI) from soybean (natural protein)
chain: DDESSKPCCDQCACTKSNPPQCRCSDMRLNSCHSACKSCICALSYPAQCFCVDITDFCYEPCKPSEDDKEN
Molecule B1 returned an IC50 of inhibition of trypsin activity (cleavage of the Arg6-Cys peptide, read by fluorescence of dC12-AgNCs-peptide/GO at 635 nm; 37 °C, 20 min, 2.0 mM phosphate buffer pH 7.4) of 3.6 ng∙mL^−1.

(Values after paper PMC5134428.)
